Experimental data reported in paper PMC3585325.

Biological target: recombinant human IGF2R extracellular domains 1–15, biotinylated CD4 (domains 3 and 4) fusion protein (human) (UniProt P11717)
Test: SPR; BIAcore T200; 1800 RU biotinylated IGF2R fusion protein immobilised on a streptavidin-loaded CM5 chip; IGF2 256 to 0.125 nM injected for 200 s at 40 µL/min, 25°C, HBS-EP buffer; kinetic fit to a 1:1 binding model and steady state analysis

| Substance | Kd [nM] |
| --- | --- |
| recombinant mouse IGF2 (ligand) | 3 to 6 |
| recombinant human IGF2 (ligand) | 1 to 4 |
